# Results as given in PMC8472802, “Agaricales Mushroom Lignin Peroxidase: From Structure–Function to Degradative Capabilities” (Antioxidants, 2021).
# B1: ApeLiP (LiP of Agrocybe pediades) (Agrocybe pediades) (protein)
# chain: AVTCPTGQTTANEACCVLFPVIDLLQEELFDGGECGEEAHAALRLAFHDAIGFSKNGGKGGGADGSILAFHQTETTYAANSGIEDIITAQLPIFQKTNLTAGDFVHLAAAIGTGNCPGSPQLAYSFGRPPPVAPAPDGTVPEPTDSVTDILARFSEAGFVTAEVIWLLASHSIAAASKIDTSAPRTPFDSTPALFDTQFYLETILNGTLLPGDGGAHTGEVLSPIAGEMRLQSDFAFAQDPRTACLWQEPINDQAFIQGKFFAAMKKLQVLGQTGLTDCSDVIPVPASLPGPITFPAGFSEADVISACTATPLPSLATIAGPKPTIPPVPL
# B2: ApeLiP (LiP of Agrocybe pediades) (Agrocybe pediades; W166A) (protein)
# chain: AVTCPTGQTTANEACCVLFPVIDLLQEELFDGGECGEEAHAALRLAFHDAIGFSKNGGKGGGADGSILAFHQTETTYAANSGIEDIITAQLPIFQKTNLTAGDFVHLAAAIGTGNCPGSPQLAYSFGRPPPVAPAPDGTVPEPTDSVTDILARFSEAGFVTAEVIALLASHSIAAASKIDTSAPRTPFDSTPALFDTQFYLETILNGTLLPGDGGAHTGEVLSPIAGEMRLQSDFAFAQDPRTACLWQEPINDQAFIQGKFFAAMKKLQVLGQTGLTDCSDVIPVPASLPGPITFPAGFSEADVISACTATPLPSLATIAGPKPTIPPVPL
# Columns and labels:
# Experiment in all cases: purified protein
# Format in all cases: biochemical, Agrocybe pediades
# purified protein [1] = substrate: COc1cccc(OC)c1O
# purified protein [2] = substrate: CCn1c(=NN=c2sc3cc(S(=O)(=O)O)ccc3n2CC)sc2cc(S(=O)(=O)O)ccc21
# purified protein [3] = substrate: COc1ccc(CO)cc1OC; conditions: pH 4.0, 25 °C, 0.4 mM H2O2, fit with substrate inhibition
# purified protein [4] = substrate: Nc1c(N=Nc2ccc(S(=O)(=O)CCOS(=O)(=O)O)cc2)c(S(=O)(=O)O)cc2cc(S(=O)(=O)O)c(N=Nc3ccc(S(=O)(=O)CCOS(=O)(=O)O)cc3)c(O)c12; conditions: Hill n = 2.11 ± 0.30, pH 3.0, 25 °C, 0.4 mM H2O2
# [5] = pH 3.0, 25 °C, 0.4 mM H2O2, fit with substrate inhibition
# [6] = high-efficiency site of biphasic kinetics, Hill n = 1.62 ± 0.12, 100 mM sodium tartrate pH 3.0, 25 °C, 0.4 mM H2O2
# [7] = pH 8.0, 25 °C, 1 mM H2O2, Michaelis-Menten fit despite substrate/product inhibition, no activity at pH 3
# [8] = low-efficiency site (only site left), Hill n = 1.62 ± 0.28, strong substrate inhibition, pH 3.0, 25 °C, 1 mM H2O2
Protein,Km (purified protein [1]; [5]),kcat (purified protein [1]; [5]),kcat/Km (purified protein [1]; [5]),K0.5 (purified protein [2]; [6]),kcat (purified protein [2]; [6]),kcat/Km (purified protein [2]; [6]),Km (purified protein [3]),kcat (purified protein [3]),kcat/Km (purified protein [3]),K0.5 (purified protein [4]),kcat (purified protein [4]),kcat/Km (purified protein [4]),Km (purified protein [1]; [7]),kcat (purified protein [1]; [7]),kcat/Km (purified protein [1]; [7]),K0.5 (purified protein [2]; [8]),kcat (purified protein [2]; [8]),kcat/Km (purified protein [2]; [8])
B1,37 ± 5.6 µM,68.6 ± 2.8 s⁻¹,1.91e+06 ± 310000 M⁻¹ s⁻¹,8.1 ± 0.6 µM,42 ± 1.8 s⁻¹,5130 ± 460 s⁻¹ mM⁻¹,(29.6 ± 4.6) × 10^3 µM,4.3 ± 0.3 s⁻¹,150 ± 30 M⁻¹ s⁻¹,14 ± 1.4 µM,21 ± 1.5 s⁻¹,1.54e+06 ± 115000 M⁻¹ s⁻¹,–,–,–,–,–,–
B2,–,–,–,–,–,–,–,–,–,–,–,–,49 ± 8.2 µM,6.1 ± 0.27 s⁻¹,125000 ± 22000 M⁻¹ s⁻¹,1150 ± 190 µM,117 ± 10 ^c s^-1,102 ± 19 ^c s^-1·mM^-1
